Source: patent US20210130452A1 (Merck KGaA, published 2021)
Several values for one entry are separate records, joined by “and”; a condition that tells them apart may be missing. Identical values can stand only once. Like-named read-outs stand apart in the source and are kept apart here.

Experiments:
human IL-17F [1] = target: T1, human IL-17F (human, UniProt Q96PD4 31-163); test: SPR (Biacore) off-rate
T1 construct: made in Hek293 cells (GenBank AF384857); also called hIL-17F; hIL17F
T1 sequence: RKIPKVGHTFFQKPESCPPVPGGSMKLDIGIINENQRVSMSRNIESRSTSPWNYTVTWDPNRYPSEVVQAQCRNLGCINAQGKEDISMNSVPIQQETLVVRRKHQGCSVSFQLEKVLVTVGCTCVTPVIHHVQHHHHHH

[2] = target: T2, human IL-17A/F heterodimer (human, UniProt Q16552 24-155; Q96PD4 31-163, limits assumed); test: SPR (Biacore) off-rate
T2 construct: bought, made in E. coli (R&D Systems 5194-IL/CF); also called hIL-17A/F; hIL17A/F
Target sequence in this assay (Q16552 24-155 limits assumed, chain 1 of 2, one chain of several): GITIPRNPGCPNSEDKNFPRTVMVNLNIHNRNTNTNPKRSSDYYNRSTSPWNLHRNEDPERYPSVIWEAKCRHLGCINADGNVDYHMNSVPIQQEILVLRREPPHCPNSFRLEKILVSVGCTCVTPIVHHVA

Cynomolgus monkey IL-17F [3] = target: T3, Cynomolgus monkey IL-17F (Cynomolgus monkey, UniProt G7P4V0 31-163); test: cell-based or functional assay
T3 sequence: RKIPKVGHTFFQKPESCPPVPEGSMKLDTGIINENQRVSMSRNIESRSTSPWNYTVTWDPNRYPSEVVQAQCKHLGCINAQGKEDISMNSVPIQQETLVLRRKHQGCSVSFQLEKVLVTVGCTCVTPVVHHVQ

human IL-17F [4] = target: T1, human IL-17F; test: cell-based or functional assay
[5] = target: T2, human IL-17A/F heterodimer; test: cell-based or functional assay
Target sequence in this assay (Q16552 24-155 limits assumed, one chain of several): as the sequence (Q16552 24-155 limits assumed, chain 1 of 2, one chain of several) above

human IL-17F [6] = target: T1, human IL-17F; test: AlphaScreen IL-17F-IL-17RC; reference itself
human IL-17F [7] = target: T1, human IL-17F; test: AlphaScreen IL-17F-IL-17RC; reference itself; remark: listed apart in the source
Cynomolgus monkey IL-17F [8] = target: T3, Cynomolgus monkey IL-17F; test: SPR (Biacore) off-rate
human IL-17F [9] = target: T1, human IL-17F; test: SPR (Biacore) off-rate; remark: listed apart in the source
[10] = target: T2, human IL-17A/F heterodimer; test: SPR (Biacore) off-rate; remark: listed apart in the source
Target sequence in this assay (Q16552 24-155 limits assumed, one chain of several): as the sequence (Q16552 24-155 limits assumed, chain 1 of 2, one chain of several) above

B1: IL17MS16A04 (VHH)
VHH: EVQLVESGGGLVQAGGSLRLSCAASGRTFSSYVVGWFRQAPGKEREFIGAISGSGDSIYYAVSEKDRFTISRDNGKNTLYLQMSSLKAEDTAVYYCTADQEFGYLRFGRSEYWGQGTQVTVSS
notes: Class 3 Nanobody, wild type; also called WT
- koff (human IL-17F [1]): 0.000405 s⁻¹
- koff [2]: 0.0024 s⁻¹
- IC50 cell based assay cyno IL-17F (Cynomolgus monkey IL-17F [3]): 7.3 nM
- IC50 cell based assay hIL-17F (human IL-17F [4]): 28 nM
- IC50 cell based assay hIL-17A/F [5]: 8 nM
- IC50 fold difference vs WT (human IL-17F [6]): 1 fold
- IC50 fold difference vs WT (human IL-17F [7]): 1 fold
- koff (Cynomolgus monkey IL-17F [8]): 0.000636 s⁻¹
- koff (human IL-17F [9]): 0.000382 s⁻¹ and 0.00041 s⁻¹
- koff [10]: 0.00239 s⁻¹ and 0.0025 s⁻¹
